Results reported in patent US11773143B2, “Conformational epitopes in respiratory syncytial virus G protein central conserved region” (priority 2017, dated 2023).
Where no end group is shown, it is not given here.

T1: CX3CR1 (Homo sapiens, UniProt P49238)
T1 construct: THP-1 cells (a human leukemia monocytic cell line) washed twice and suspended in serum-free RPMI 1640 media; endogenous in cells; host or cells: THP-1
T1 sequence (P49238 1-355): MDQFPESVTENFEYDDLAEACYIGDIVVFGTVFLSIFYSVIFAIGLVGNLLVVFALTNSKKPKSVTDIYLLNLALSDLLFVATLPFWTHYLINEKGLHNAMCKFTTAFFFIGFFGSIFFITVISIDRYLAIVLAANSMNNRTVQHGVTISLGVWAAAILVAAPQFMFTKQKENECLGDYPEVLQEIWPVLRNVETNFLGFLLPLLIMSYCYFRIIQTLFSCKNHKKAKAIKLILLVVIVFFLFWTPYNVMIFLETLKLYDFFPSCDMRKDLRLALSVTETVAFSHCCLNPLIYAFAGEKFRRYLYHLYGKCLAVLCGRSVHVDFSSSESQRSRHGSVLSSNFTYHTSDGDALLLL

B1: 3D3: high affinity, broadly neutralizing human mAb binding RSV G protein CCR (antibody, V domains shown)
VH: EEQLVESGGGLVQPGRSLRLSCVGSGLRFEEHAMHWVRQAPGRGLEWVSGISWNSGSVGYADSVKGRFTTSRDNAKDILFLEMNTLRSEDTALYFCAIMVATTKNDFHYYKDVWGKGTTVTVSS
VL: QIVLTQSPATLSLSPGERATLSCRASQSVSNHLAWYQQKPGQAPRLLIYETSNRATGIPPRFSGSGSGTDFTLTISSLEPEDFAVYYCQQRNNWYTFGQGTKLEIK

Assays:
CX3CR1 = target: T1, CX3CR1; test: Chemotaxis assay: RSV G modulation of CX3CR1, receptor-mediated chemotaxis of THP-1 cells (transwell); type: cell-based; conditions: for Chemotactic activity: RSV G (CCR) variants, chemotaxis assay of Example 4, duplicate assays, standard deviations in parentheses
Experimental: An in vitro assay for RSV G modulation of CX3CR1 measures receptor mediated chemotaxis of human monocyte THP-1 cells {Tripp, R. A. et al. Nature Immunology (2001) 2:732-738}. […]
In more detail, the assay was performed using a transwell insert plate with an 8 µm pore size. Approximately 2 million log-phase THP-1 cells (a human leukemia monocytic cell line) washed twice and suspended in serum-free RPMI 1640 media were added to the upper chamber of the insert plate. Negative control was serum-free media alone to which serum-free media containing 25 nM mAb was added to the lower chamber. As a positive control, media containing 10% FBS was added to the lower chamber. RSV G[ecto] or RSV G[161-197] samples were added to the lower chamber at a final concentration of 5 nM in serum-free media. For samples with RSV G[161-197] and mAbs, RSV G[161-197] was pre-incubated with 5-molar excess mAb for 20 min at room temperature, and then added to serum-free media in the lower chamber, for a final concentration of 5 nM RSV G[161-197] and 25 nM mAb. For samples with anti-CX3CR1 antibody, 2 μL 1 mg/mL anti-CX3CR1 rabbit polyclonal antibody (ThermoFisher Scientific Cat #PA5-19910) was incubated with THP-1 cells for 30 minutes in the upper chamber before being placed into the well. The assembled plates were incubated in a CO2 incubator at 37° C. for 5 h. Cells migrated to the lower chamber were counted, and the chemotactic indices were determined by comparing the fold-increase in cell migration toward the chemoattractant to cell migration toward serum-free media alone. Experiments were performed in at least four biological replicates.
Determination of structures of RSV G CCR protein in complex with the high affinity antibodies 2D10 and 3D3 shown in FIG. 4A-B provide a roadmap to design RSV G immunogens to disable CX3CR1 binding without disrupting the ability to generate high-affinity mAb epitopes. Specifically, six highly conserved amino acids have been identified whose side-chains make no molecular contacts with mAbs 3D3 and 2D10, so they can be substituted without impacting generation of high affinity mAbs similar to these mAbs. These residues are therefore candidates for substitution in order to interfere with binding to CX3CR1. Generally, providing an alteration in charge (charge switch) and/or a change in size or shape resulting in a steric hinderance (steric clash) would be expected to result in a negative impact on such binding. […] Six representative mutants have been tested for their impact on CX3CR1 function as measured by the chemotaxis assay described in Example 4. Table 4 summarizes the results of duplicate assays (with standard deviations) using the standard one letter abbreviations for the amino acid at the indicated residue.

RSV [1] = conditions: mice, day 5 post-inoculation, vs isotype control; cited from earlier work
RSV [2] = conditions: in vitro; cited from earlier work
RSV G protein = RSV G protein (Human respiratory syncytial virus A, UniProt P03423); conditions: read-out: affinity; mAb binding to RSV G protein; cited from earlier work
Sequence of RSV G protein (P03423 whole entry): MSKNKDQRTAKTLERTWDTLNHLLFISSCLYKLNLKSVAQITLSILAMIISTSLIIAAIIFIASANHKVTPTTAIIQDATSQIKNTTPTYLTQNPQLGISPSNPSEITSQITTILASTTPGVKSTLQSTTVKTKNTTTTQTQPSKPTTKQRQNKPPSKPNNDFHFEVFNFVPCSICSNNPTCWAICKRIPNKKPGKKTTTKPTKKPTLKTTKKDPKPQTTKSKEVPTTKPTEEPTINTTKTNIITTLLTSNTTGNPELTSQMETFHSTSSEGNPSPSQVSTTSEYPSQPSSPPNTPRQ

Molecule | Chemotactic activity (CX3CR1) | other results
E166→K + K187 →E: RSV G (CCR) double variant, charge switch (NDFHFKVFNFVPCSICSNNPTCWAICERIPNKKPGKK; not fully specified (bridges); cysteine pairing not given here) | 1.8 (0.1) | 
E166→K: RSV G (CCR) variant, E166 to K, charge switch (NDFHFKVFNFVPCSICSNNPTCWAICKRIPNKKPGKK; not fully specified (bridges); cysteine pairing not given here) | 1.6 (0.7) | 
H164→Y: RSV G (CCR) variant, H164 to Y, steric clash (NDFYFEVFNFVPCSICSNNPTCWAICKRIPNKKPGKK; not fully specified (bridges); cysteine pairing not given here) | 3.8 (0.4) | 
K192→E + K193 →E: RSV G (CCR) double variant, charge switch (NDFHFEVFNFVPCSICSNNPTCWAICKRIPNEEPGKK; not fully specified (bridges); cysteine pairing not given here) | 2.5 (0.7) | 
S177→R: RSV G (CCR) variant, substitution of arginine for serine at position 177 (NDFHFEVFNFVPCSICRNNPTCWAICKRIPNKKPGKK; not fully specified (bridges); cysteine pairing not given here) | 0.9 (0.2) | 
S177→W: RSV G (CCR) variant, S177 to W, steric clash (NDFHFEVFNFVPCSICWNNPTCWAICKRIPNKKPGKK; not fully specified (bridges); cysteine pairing not given here) | 1.2 (0.4) | 
Synagis: humanized mouse mAb against RSV F protein |  | effect on total BAL cells (RSV [1]): did not reduce total BAL cells
Wild type RSV G (CCR) (NDFHFEVFNFVPCSICSNNPTCWAICKRIPNKKPGKK; not fully specified (bridges); cysteine pairing not given here) | 6.2 (0.7) | 
B1 |  | Blocking of RSV G[161-197]-induced chemotaxis by pre-incubation with mAb (CX3CR1; THP-1 cells, level comparable to anti-CX3CR1 polyclonal serum): blocked; viral neutralizing activity (RSV [2]): broad neutralizing activity; Kd (RSV G protein): 1.1 pM
